Patent publication US4285932A, “Enzyme derivatives for use in the treatment of venous thrombosis” (Beecham Group Limited, priority 1978, dated 1981)

How the values were obtained:
Porcine Plasmin = test: Deacylation (hydrolysis) of active-site blocked porcine plasmin, pseudo-first order rate constant followed by regain of activity on chromogenic substrate; assay type: biochemical; conditions: active site serine substituted porcine plasmin; pH 7.4, 37° C.
Method: (§1) The pseudo-first order rate constant is determined by hydrolysing the enzyme derivative under physiological conditions i.e. in isotonic aqueous media at pH 7.4 and at 37° C. At regular intervals aliquots are withdrawn and incubated with a chromogenic or fluorogenic protease substrate such as S-2251 (H-D-Val-Leu-Lys-p-nitroanilide 2HCl) and the rate of conversion of the substrate measured.
(§2) The hydrolysis is followed until such time as the rate of conversion of substrate reaches a maximum. The rate constant k is then calculated by plotting: […]
(§3) loge (1-^At /Amax) against t
(§4) where Amax the maximum rate at which an aliquot converts substrate and At is the rate at which an aliquot converts substrate at time t.

Human Plasmin = test: Deacylation (hydrolysis) of active-site blocked human plasmin, pseudo-first order rate constant followed by regain of activity on chromogenic substrate S-2251; assay type: biochemical; conditions: active site serine substituted human plasmin; pH 7.4, 37° C.
Method: as §1, §2, §3, §4

Molecule | Deacylation rate, Porcine Plasmin K sec^-1 × 10^4 (Porcine Plasmin) [sec^-1 × 10^4] | Deacylation rate, Human Plasmin K sec^-1 × 10^4 (Human Plasmin) [sec^-1 × 10^4]
p-Fluorobenzoyl: porcine plasmin, active site serine blocked by p-fluorobenzoyl (protein, UniProt P06867 20-579; P06867 580-809, looked up, plasmin p-fluorobenzoyl acylated active site) Plasmin heavy chain A: DSLDDYVNTQGAFLFSLSRKQVAARSVEECAAKCEAETNFICRAFQYHSKDQQCVVMAENSKTSPIARMRDVVLFEKRIYLSECKTGNGKNYRGTTSKTKSGVICQKWSVSSPHIPKYSPEKFPLAGLEENYCRNPDNDEKGPWCYTTDPETRFDYCDIPECEDECMHCSGEHYEGKISKTMSGIECQSWGSQSPHAHGYLPSKFPNKNLKMNYCRNPDGEPRPWCFTTDPNKRWEFCDIPRCTTPPPTSGPTYQCLKGRGENYRGTVSVTASGHTCQRWSAQSPHKHNRTPENFPCKNLEENYCRNPDGETAPWCYTTDSEVRWDYCKIPSCGSSTTSTEYLDAPVPPEQTPVAQDCYRGNGESYRGTSSTTITGRKCQSWVSMTPHRHEKTPGNFPNAGLTMNYCRNPDADKSPWCYTTDPRVRWEYCNLKKCSETEQQVTNFPAIAQVPSVEDLSEDCMFGNGKRYRGKRATTVAGVPCQEWAAQEPHRHSIFTPETNPRAGLEKNYCRNPDGDDNGPWCYTTNPQKLFDYCDVPQCVTSSFDCGKPKVEPKKCPAR Plasmin light chain B: VVGGCVSIPHSWPWQISLRHRYGGHFCGGTLISPEWVLTAKHCLEKSSSPSSYKVILGAHEEYHLGEGVQEIDVSKLFKEPSEADIALLKLSSPAIITDKVIPACLPTPNYVVADRTACYITGWGETKGTYGAGLLKEARLPVIENKVCNRYEYLGGKVSPNELCAGHLAGGIDSCQGDSGGPLVCFEKDKYILQGVTSWGLGCALPNKPGVYVRVSRFVTWIEEIMRRN | 3.30 | –
p-Methyl-t-cinnamoyl: porcine plasmin, active site serine blocked by p-methyl-trans-cinnamoyl (protein, UniProt P06867 20-579; P06867 580-809, looked up, plasmin p-methyl-trans-cinnamoyl acylated active site) Plasmin heavy chain A: DSLDDYVNTQGAFLFSLSRKQVAARSVEECAAKCEAETNFICRAFQYHSKDQQCVVMAENSKTSPIARMRDVVLFEKRIYLSECKTGNGKNYRGTTSKTKSGVICQKWSVSSPHIPKYSPEKFPLAGLEENYCRNPDNDEKGPWCYTTDPETRFDYCDIPECEDECMHCSGEHYEGKISKTMSGIECQSWGSQSPHAHGYLPSKFPNKNLKMNYCRNPDGEPRPWCFTTDPNKRWEFCDIPRCTTPPPTSGPTYQCLKGRGENYRGTVSVTASGHTCQRWSAQSPHKHNRTPENFPCKNLEENYCRNPDGETAPWCYTTDSEVRWDYCKIPSCGSSTTSTEYLDAPVPPEQTPVAQDCYRGNGESYRGTSSTTITGRKCQSWVSMTPHRHEKTPGNFPNAGLTMNYCRNPDADKSPWCYTTDPRVRWEYCNLKKCSETEQQVTNFPAIAQVPSVEDLSEDCMFGNGKRYRGKRATTVAGVPCQEWAAQEPHRHSIFTPETNPRAGLEKNYCRNPDGDDNGPWCYTTNPQKLFDYCDVPQCVTSSFDCGKPKVEPKKCPAR Plasmin light chain B: VVGGCVSIPHSWPWQISLRHRYGGHFCGGTLISPEWVLTAKHCLEKSSSPSSYKVILGAHEEYHLGEGVQEIDVSKLFKEPSEADIALLKLSSPAIITDKVIPACLPTPNYVVADRTACYITGWGETKGTYGAGLLKEARLPVIENKVCNRYEYLGGKVSPNELCAGHLAGGIDSCQGDSGGPLVCFEKDKYILQGVTSWGLGCALPNKPGVYVRVSRFVTWIEEIMRRN | 2.92 | –
3 Methyl 4-methoxybenzoyl: human plasmin, active site serine blocked by 3-methyl-4-methoxybenzoyl (acylating agent of Example 17) (protein, UniProt P00747 20-580; P00747 581-810, looked up, plasmin 3-methyl-4-methoxybenzoyl acylated active site) Plasmin heavy chain A: EPLDDYVNTQGASLFSVTKKQLGAGSIEECAAKCEEDEEFTCRAFQYHSKEQQCVIMAENRKSSIIIRMRDVVLFEKKVYLSECKTGNGKNYRGTMSKTKNGITCQKWSSTSPHRPRFSPATHPSEGLEENYCRNPDNDPQGPWCYTTDPEKRYDYCDILECEEECMHCSGENYDGKISKTMSGLECQAWDSQSPHAHGYIPSKFPNKNLKKNYCRNPDRELRPWCFTTDPNKRWELCDIPRCTTPPPSSGPTYQCLKGTGENYRGNVAVTVSGHTCQHWSAQTPHTHNRTPENFPCKNLDENYCRNPDGKRAPWCHTTNSQVRWEYCKIPSCDSSPVSTEQLAPTAPPELTPVVQDCYHGDGQSYRGTSSTTTTGKKCQSWSSMTPHRHQKTPENYPNAGLTMNYCRNPDADKGPWCFTTDPSVRWEYCNLKKCSGTEASVVAPPPVVLLPDVETPSEEDCMFGNGKGYRGKRATTVTGTPCQDWAAQEPHRHSIFTPETNPRAGLEKNYCRNPDGDVGGPWCYTTNPRKLYDYCDVPQCAAPSFDCGKPQVEPKKCPGR Plasmin light chain B: VVGGCVAHPHSWPWQVSLRTRFGMHFCGGTLISPEWVLTAAHCLEKSPRPSSYKVILGAHQEVNLEPHVQEIEVSRLFLEPTRKDIALLKLSSPAVITDKVIPACLPSPNYVVADRTECFITGWGETQGTFGAGLLKEAQLPVIENKVCNRYEFLNGRVQSTELCAGHLAGGTDSCQGDSGGPLVCFEKDKYILQGVTSWGLGCARPNKPGVYVRVSRFVTWIEGVMRNN | – | 0.70
2,4 Dimethoxybenzoyl: human plasmin, active site serine blocked by 2,4-dimethoxybenzoyl (acylating agent of Example 6) (protein, UniProt P00747 20-580; P00747 581-810, looked up, plasmin 2,4-dimethoxybenzoyl acylated active site) Plasmin heavy chain A: EPLDDYVNTQGASLFSVTKKQLGAGSIEECAAKCEEDEEFTCRAFQYHSKEQQCVIMAENRKSSIIIRMRDVVLFEKKVYLSECKTGNGKNYRGTMSKTKNGITCQKWSSTSPHRPRFSPATHPSEGLEENYCRNPDNDPQGPWCYTTDPEKRYDYCDILECEEECMHCSGENYDGKISKTMSGLECQAWDSQSPHAHGYIPSKFPNKNLKKNYCRNPDRELRPWCFTTDPNKRWELCDIPRCTTPPPSSGPTYQCLKGTGENYRGNVAVTVSGHTCQHWSAQTPHTHNRTPENFPCKNLDENYCRNPDGKRAPWCHTTNSQVRWEYCKIPSCDSSPVSTEQLAPTAPPELTPVVQDCYHGDGQSYRGTSSTTTTGKKCQSWSSMTPHRHQKTPENYPNAGLTMNYCRNPDADKGPWCFTTDPSVRWEYCNLKKCSGTEASVVAPPPVVLLPDVETPSEEDCMFGNGKGYRGKRATTVTGTPCQDWAAQEPHRHSIFTPETNPRAGLEKNYCRNPDGDVGGPWCYTTNPRKLYDYCDVPQCAAPSFDCGKPQVEPKKCPGR Plasmin light chain B: VVGGCVAHPHSWPWQVSLRTRFGMHFCGGTLISPEWVLTAAHCLEKSPRPSSYKVILGAHQEVNLEPHVQEIEVSRLFLEPTRKDIALLKLSSPAVITDKVIPACLPSPNYVVADRTECFITGWGETQGTFGAGLLKEAQLPVIENKVCNRYEFLNGRVQSTELCAGHLAGGTDSCQGDSGGPLVCFEKDKYILQGVTSWGLGCARPNKPGVYVRVSRFVTWIEGVMRNN | – | 1.10
O-Toloyl: human plasmin, active site serine blocked by o-toluoyl (acylating agent of Example 9) (protein, UniProt P00747 20-580; P00747 581-810, looked up, plasmin o-toluoyl acylated active site) Plasmin heavy chain A: EPLDDYVNTQGASLFSVTKKQLGAGSIEECAAKCEEDEEFTCRAFQYHSKEQQCVIMAENRKSSIIIRMRDVVLFEKKVYLSECKTGNGKNYRGTMSKTKNGITCQKWSSTSPHRPRFSPATHPSEGLEENYCRNPDNDPQGPWCYTTDPEKRYDYCDILECEEECMHCSGENYDGKISKTMSGLECQAWDSQSPHAHGYIPSKFPNKNLKKNYCRNPDRELRPWCFTTDPNKRWELCDIPRCTTPPPSSGPTYQCLKGTGENYRGNVAVTVSGHTCQHWSAQTPHTHNRTPENFPCKNLDENYCRNPDGKRAPWCHTTNSQVRWEYCKIPSCDSSPVSTEQLAPTAPPELTPVVQDCYHGDGQSYRGTSSTTTTGKKCQSWSSMTPHRHQKTPENYPNAGLTMNYCRNPDADKGPWCFTTDPSVRWEYCNLKKCSGTEASVVAPPPVVLLPDVETPSEEDCMFGNGKGYRGKRATTVTGTPCQDWAAQEPHRHSIFTPETNPRAGLEKNYCRNPDGDVGGPWCYTTNPRKLYDYCDVPQCAAPSFDCGKPQVEPKKCPGR Plasmin light chain B: VVGGCVAHPHSWPWQVSLRTRFGMHFCGGTLISPEWVLTAAHCLEKSPRPSSYKVILGAHQEVNLEPHVQEIEVSRLFLEPTRKDIALLKLSSPAVITDKVIPACLPSPNYVVADRTECFITGWGETQGTFGAGLLKEAQLPVIENKVCNRYEFLNGRVQSTELCAGHLAGGTDSCQGDSGGPLVCFEKDKYILQGVTSWGLGCARPNKPGVYVRVSRFVTWIEGVMRNN | – | 1.71
p-Ethoxybenzoyl: human plasmin, active site serine blocked by p-ethoxybenzoyl (acylating agent of Example 8) (protein, UniProt P00747 20-580; P00747 581-810, looked up, plasmin p-ethoxybenzoyl acylated active site) Plasmin heavy chain A: EPLDDYVNTQGASLFSVTKKQLGAGSIEECAAKCEEDEEFTCRAFQYHSKEQQCVIMAENRKSSIIIRMRDVVLFEKKVYLSECKTGNGKNYRGTMSKTKNGITCQKWSSTSPHRPRFSPATHPSEGLEENYCRNPDNDPQGPWCYTTDPEKRYDYCDILECEEECMHCSGENYDGKISKTMSGLECQAWDSQSPHAHGYIPSKFPNKNLKKNYCRNPDRELRPWCFTTDPNKRWELCDIPRCTTPPPSSGPTYQCLKGTGENYRGNVAVTVSGHTCQHWSAQTPHTHNRTPENFPCKNLDENYCRNPDGKRAPWCHTTNSQVRWEYCKIPSCDSSPVSTEQLAPTAPPELTPVVQDCYHGDGQSYRGTSSTTTTGKKCQSWSSMTPHRHQKTPENYPNAGLTMNYCRNPDADKGPWCFTTDPSVRWEYCNLKKCSGTEASVVAPPPVVLLPDVETPSEEDCMFGNGKGYRGKRATTVTGTPCQDWAAQEPHRHSIFTPETNPRAGLEKNYCRNPDGDVGGPWCYTTNPRKLYDYCDVPQCAAPSFDCGKPQVEPKKCPGR Plasmin light chain B: VVGGCVAHPHSWPWQVSLRTRFGMHFCGGTLISPEWVLTAAHCLEKSPRPSSYKVILGAHQEVNLEPHVQEIEVSRLFLEPTRKDIALLKLSSPAVITDKVIPACLPSPNYVVADRTECFITGWGETQGTFGAGLLKEAQLPVIENKVCNRYEFLNGRVQSTELCAGHLAGGTDSCQGDSGGPLVCFEKDKYILQGVTSWGLGCARPNKPGVYVRVSRFVTWIEGVMRNN | – | 1.10
